Assay results taken from the supplement of paper PMC6755084.

system: F1*sub RNA substrate (template-directed ligation); experiment: fraction ligated after 30 min (ligated reads / total reads); higher = more ligase activity; sequences stand for … in GAGACCGCAACTGAAAAGTTGT…AGTTCTGCACGTAGAAGCAAAAGGC; details: 42 °C
How it was run: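 Oligo-pool templates of ligase ribozyme variants were PCR-amplified, T7-transcribed and gel-purified. Ligated and unligated bands were gel-separated, reverse transcribed with barcoded primers, and MiSeq-sequenced; core bases were filtered at quality ≥20. Fraction ligated per variant was ligated reads over total reads.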

In order of falling fraction ligated:
1. TATCACTTCGTAAGAACTTTGGATGGGTTGA [3d1317]  0.868
2. TATCACTTGTGTAAGAATTTGGATGGGTTGA [3d1764]  0.863
3. TATCACTTGTGTAGACACTTTGGATGGGTTG [3d1743]  0.863
4. ATCACTTGTGTAAGCACTTTGGATGGGTTGA [3d160]  0.854
5. TATCACTTCGTAAGACATTTGGATGGGTTGA [3d1319]  0.84
6. TATCACTTGCGTAAGAACTTGGATGGGTTGA [3d1660]  0.827
7. TATCACTTGTCGTAAACATTTGGATGGGTTA [3d2079]  0.822
8. ATCACTGCGTAAGACACTTTGGATGGGTTGA [3d107]  0.818
9. TATCACTTGTCGTAAAACTTTGGATGGGTTGA [2d234]  0.818
10. TATCACTTGCGTAGACACTTTGGATGGGTTG [3d1638]  0.816
11. TATCATTGTCGTAAGAACTTTGGATGGGTTG [3d1254]  0.815
12. TATCACTTGTGTAAGACCTTTGGATGGGTTA [3d1777]  0.81
13. TATCACTTGCGTAAGACCTTTGGATGGGTTG [3d1673]  0.81
14. TATACTTGTGTAAGACACTTTGGATGGGTTG [3d842]  0.809
15. TATCACTTGTCGTAAGAACTTGGATGGGTTGA [2d255]  0.805
16. TATCACTGTCTAAGACATTTGGATGGGTTGA [3d1364]  0.803
17. TATCACTTGTCGTAGACACTTGGATGGGTTGA [2d227]  0.803
18. TATCATTGTCGTAAGACACTTGGATGGGTTG [3d1275]  0.8
19. TATCATTGCGTAAGCACTTTGGATGGGTTGA [3d1161]  0.799
20. TATCACTTGTCTAGACACTTTGGATGGGTTGA [2d195]  0.799
21. TATCCTTGCGTAGACACTTTGGATGGGTTGA [3d987]  0.799
22. TCACTTGTCGTAAGACACTTTGGATGGGTTG [3d23]  0.797
23. TATCACTTGCGTAAGACACTTGGATGGGTTG [3d1687]  0.796
24. TATCACTGTCTAAGACCTTTGGATGGGTTGA [3d1363]  0.795
25. TATCACTGTCGTAAACACTTGGATGGGTTGA [3d1401]  0.794
26. TATCACTTGTCTAAGACATTTGGATGGGTTA [3d1876]  0.793
27. TATCATTGTCGTAAACCTTTGGATGGGTTGA [3d1228]  0.79
28. TATCACTTGTCTAAAACTTTGGATGGGTTGA [3d1836]  0.789
29. TATCACTTGTCGTAGACACTTGGATGGGTTG [3d2041]  0.782
30. TATCACGTCGTAAGACACTTTGATGGGTTGA [3d1305]  0.777
31. TATCCTTGCGTAAGCACTTTGGATGGGTTGA [3d989]  0.775
32. TATCCTTGTCGAAGAACTTTGGATGGGTTGA [3d1032]  0.772
33. ATCATTGTCGTAAACACTTTGGATGGGTTGA [3d93]  0.77
34. ATCACTTGTCGTAGACCTTTGGATGGGTTGA [3d202]  0.767
35. TATACTTGTCGTAAGACACTTGATGGGTTGA [3d926]  0.765
36. TATCACTTGTCGTAAAACTTTGGATGGGTTA [3d2065]  0.764
37. TATCATTTCGTAAGACACTTGGATGGGTTGA [3d1149]  0.763
38. ATCACTTGCTAAGACACTTTGGATGGGTTGA [3d141]  0.763
39. TATCACTGTCGTAAACACTTTGGATGGGTTA [3d1406]  0.761
40. TATCACTTGTCGTAAGACTTTGATGGGTTGA [3d2108]  0.76
41. TATCACTTGTCGTAAGCATTGGATGGGTTGA [3d2121]  0.756
42. TATACTTGTGAAGACACTTTGGATGGGTTGA [3d829]  0.756
43. TATCACTTGTCTAAGACACTTTGGATGGGTT [3d1900]  0.747
44. TATCATTGTCGTAAGACACTTGGATGGGTTA [3d1274]  0.728
45. TTCACTTGTCAAGACACTTTGGATGGGTTGA [3d402]  0.719
46. ATCACTTGTCGTAAGCACTTGGATGGGTTGA [3d224]  0.716
47. TATCACTTGTCAAGACACTTTGATGGGTTGA [3d1817]  0.715
48. ATCCTTGTCGTAAGACACTTTGATGGGTTGA [3d80]  0.71
49. TATCACTTGCGTAAGCACTTTGGATGGTTGA [3d1656]  0.705
50. ATCCTTGTCGTAAGACCTTTGGATGGGTTGA [3d77]  0.703
51. TATACTTGTCGAAGCACTTTGGATGGGTTGA [3d859]  0.703
52. TATCATTGTCGTAAGACCTTTGGATGGGTTA [3d1260]  0.697
53. TTCACTTGTCGTAAGACACTTTGGATGGTTG [3d505]  0.681
54. ATCATTGTCGTAAGACACTTTGATGGGTTGA [3d99]  0.664
55. ATCATTGTCTAAGACACTTTGGATGGGTTGA [3d90]  0.663
56. TATCACTTGTCGTAGACACTTGATGGGTTGA [3d2036]  0.657
57. TACCTGTCGTAAGACACTTTGGATGGGTTGA [3d528]  0.655
58. TTACTTGTCGTAAGACATTTGGATGGGTTGA [3d290]  0.517
59. TATCATTGTCGAAGACACTTTGGATGGGTTA [3d1212]  0.475
60. TACACTGTCGTAAGCACTTTGGATGGGTTGA [3d574]  0.463
61. TATACTTTCGAAGACACTTTGGATGGGTTGA [3d798]  0.451
62. TATCACTTGTCGTAAGACACTTTGGATGGTTA [2d296]  0.447
63. TATCATTGTCGTAAGACCTTTGGTGGGTTGA [3d1257]  0.426
64. TACACTTGTCGTAAGACTTTGGATGGGTTGA [3d682]  0.409
65. TATCCTTGTCGTAAGCACTTTGGATGGGTTA [3d1073]  0.381
66. TATCCTTGTCGTAAGAACTTTGGATGGGTTA [3d1081]  0.351
67. TATCACTTGCTAAGACACTTTGGATGGTTGA [3d1610]  0.351
68. TATCACTTGTCGTAAGACCTTTGGATGGTTGA [2d266]  0.285
69. TACACTGTCGTAAGACACTTTGATGGGTTGA [3d579]  0.279
70. TATCACTGTCGTAAGAACTTTGGATGGTTGA [3d1423]  0.26
71. TACATTGTCGTAAGACACTTTGGATGGGTTGA [2d49]  0.223
72. ACACTTGCGTAAGACACTTTGGATGGGTTGA [3d29]  0.197
73. TATCACTTGTCGTAAAACTTTGGATGGTTGA [3d2064]  0.185
74. TACATTGTCGTAAGACACTTTGGATGGGTTG [3d565]  0.163
75. TATCACTTGTCGTAAGCACTTTGGATGGTTA [3d2148]  0.153
76. TAACTTGTCGTAAGCACTTTGGATGGGTTGA [3d517]  0.142
77. TATCACTTGTCGAAGACATTTGGATGGTTGA [3d1954]  0.133
78. TACACTTGTCTAAGACACTTTGGATGGGTTA [3d644]  0.131
79. TATCACTTGTCGTAAGAACTTTGGTGGGTTGA [2d257]  0.123
80. TATCACTTTCTAAGACACTTTGGATGGTTGA [3d1490]  0.114
81. TATCACTTTCGTAAGACACTTTGGATGGTTGA [2d160]  0.114
82. TATCACTTGTCGTAAGACCTTTGGAGGGTTA [3d2201]  0.0991
83. TATACTTGTCGTAAGACATTTGGATGGGTTA [3d923]  0.0964
84. TATACTTGTCGTAAGACACTTGGATGGTTGA [3d929]  0.0929
85. TATCATTGTCGTAAGACACTTTGGATGGGTT [3d1291]  0.0919
86. TATCATTGCGTAAGACACTTTGGATGGTTGA [3d1169]  0.0894
87. TATCACTTGTCGTAGACACTTTGGGGGTTGA [3d2048]  0.0891
88. ATCACTTGTCGTAAGACATTTGATGGGTTGA [3d247]  0.0818
89. TATATTGTCGTAAGACACTTTGGATGGTTGA [3d774]  0.0779
90. TAACTTGTCGTAAACACTTTGGATGGGTTGA [3d516]  0.0735
91. TACATTGTCGAAGACACTTTGGATGGGTTGA [3d552]  0.0671
92. TATACTTGTCGTAAGACACTTTGGATGGTTG [3d946]  0.0597
93. TATCACTTGTCTAAGACACTTTGATGGTTGA [3d1888]  0.0589
94. TATCCTTGTCGTAAGACACTTTGGATGGTTGA [2d106]  0.0489
95. TATCACTTGTCGTAAGAACTTTGATGGTTGA [3d2169]  0.0458
96. TATCACTTGTCGTAGACATTTGGTGGGTTGA [3d2030]  0.0449
97. TACACTTGTCGTAAGACACTTTGAGGGTTGA [3d723]  0.0442
98. TATCACTTGTCGTAAGACACTTTGGGGTTGA [3d2260]  0.0415
99. TATCATTGTCGTAAGACACTTTGTGGGTTGA [3d1277]  0.0371
100. TACACTTGTCGTAAGACACTTGGATGGGTTA [3d719]  0.0331
101. TATCACTTGTCGTAAGACACTTTATGGGTTGA [2d283]  0.0284
102. TATCACTTTCGTAAGACACTTTGTGGGTTGA [3d1569]  0.0262
103. TATCATTGTCGTAAGACACTTTGGTGGTTGA [3d1283]  0.0252
104. TATCACTTGTCGTAAGACACTTTGGATGGTT [3d2281]  0.024
105. TATACTTGTCGTAAGACATTTGGAGGGTTGA [3d921]  0.0163
106. TATCACTTGTCGTAAGACCTTTGTGGGTTGA [3d2191]  0.0153
107. TATCACTTGTCGTAAGACATTTGGAGGGTTGA [2d272]  0.015
108. TTCACTTGTCGTAAACACTTTGGATGGGTTA [3d450]  0.0146
109. TATCACTTGTCGTAAGACACTTTGGGGGTTG [3d2272]  0.0105
110. TACACTTGTGTAAGAACTTTGGATGGGTTGA [3d622]  0.00557
111. TATCACTTGTCGTAAGACATTTGGAGGTTGA [3d2224]  0.00439
112. TATCACTTGTCGTAAGACATTTGAGGGTTGA [3d2216]  0.00411
